Data: US20260000764A1 (CITY OF HOPE, published 2026)

T1: Biotinylated recombinant human IL-13Rα1 ectodomain with C-terminal biotin acceptor peptide and hexahistidine … (human, UniProt P78552 22-343, biotin on the biotin acceptor peptide (coexpressed with BirA ligase))
T1 construct: extracellular domain; also called recombinant IL13Rα1; biotinylated IL13Rα1
T1 sequence: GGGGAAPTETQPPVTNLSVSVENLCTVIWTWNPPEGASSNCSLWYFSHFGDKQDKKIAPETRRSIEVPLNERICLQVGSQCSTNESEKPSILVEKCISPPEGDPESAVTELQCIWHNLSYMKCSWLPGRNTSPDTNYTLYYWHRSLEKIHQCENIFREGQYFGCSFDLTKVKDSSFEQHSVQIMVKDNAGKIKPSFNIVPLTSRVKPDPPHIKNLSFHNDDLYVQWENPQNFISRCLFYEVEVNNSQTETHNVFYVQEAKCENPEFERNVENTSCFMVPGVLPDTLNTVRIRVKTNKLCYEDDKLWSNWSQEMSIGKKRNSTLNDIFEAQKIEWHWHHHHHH

T2: Biotinylated recombinant human IL-13Rα2 ectodomain with C-terminal biotin acceptor peptide and hexahistidine … (human, UniProt Q14627 27-343, biotin on the biotin acceptor peptide (coexpressed with BirA ligase))
T2 construct: extracellular domain; also called recombinant IL13Rα2; biotinylated IL13Rα2
T2 sequence: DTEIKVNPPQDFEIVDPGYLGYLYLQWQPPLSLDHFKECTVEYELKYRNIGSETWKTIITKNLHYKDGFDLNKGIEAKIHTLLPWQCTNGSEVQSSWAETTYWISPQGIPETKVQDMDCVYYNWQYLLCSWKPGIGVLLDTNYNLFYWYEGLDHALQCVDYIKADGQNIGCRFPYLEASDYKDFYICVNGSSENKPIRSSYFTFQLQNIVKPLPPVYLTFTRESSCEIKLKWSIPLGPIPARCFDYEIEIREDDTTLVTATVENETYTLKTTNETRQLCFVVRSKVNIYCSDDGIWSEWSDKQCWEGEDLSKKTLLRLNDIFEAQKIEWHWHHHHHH


Tests used:
[1] = molecular target: T1, Biotinylated recombinant human IL-13Rα1 …; assay: SPR; ratio column of the drawn table, IL13Rα1
Description: (§1) FIG. 2A-2F: IL-13Rα1 and IL-13Rα2 binding affinities of the IL-13 variant. (A-C) Surface plasmon resonance measurements of IL-13, IL-13 D7 and IL-13 C4 for IL-13Rα1. IL-13Rα1 was immobilized on the surface of the chip and the indicated doses of IL-13 or the two IL-13 mutants were flowed. (D-F) Surface plasmon resonance measurements of IL-13,IL-13 D7 and IL-13 C4 for IL-13Rα2. IL-13Rα2 was immobilized on the surface of the chip and the indicated doses of IL-13 or the two IL-13 mutants were flowed.
(§2) SPR experiments were conducted on a Biacore T100 instrument using a Biacore SA sensor chip (GE Healthcare). Biotinylated IL-13Rα1/IL-13Rα2 was captured at a low density (50-100 response units (RU)) and kinetics measurements were conducted at 30 μL/min. An unrelated biotinylated protein was immobilized as a reference surface for the SA sensor chip with matching RU to the experimental surface. All measurements were made using 3-fold serial dilutions of IL-13 agonists in the running buffer (1×HBS-P, 0.1% BSA). The IL-13Rα1/IL-13Rα2 bound to the chip surface was regenerated with 7 mM glycine (pH 3.0) and 250 mM NaCl. Kinetic parameters were determined using 120 s to 190 s of IL-13 agonist association time and 20 s to 1200 s dissociation time. All data fitting was performed using the Biacore T100 evaluation software version 2.0 with a 1:1 Langmuir binding model.

[2] = molecular target: T2, Biotinylated recombinant human IL-13Rα2 …; assay: SPR (Biacore T100), biotinylated IL-13Rα2 captured on SA chip, IL-13 C4 flowed, 1:1 Langmuir fit
Description: as §1, §2

[3] = molecular target: T2, Biotinylated recombinant human IL-13Rα2 …; assay: SPR, Biacore T100, biotinylated receptor captured on SA chip, cytokine flowed, 1:1 Langmuir fit
Description: as §2

[4] = molecular target: T2, Biotinylated recombinant human IL-13Rα2 …; assay: SPR, IL-13Rα2 immobilized on the chip, IL-13 C4 flowed; panel titled IL-13C4/IL-13Rα2
Description: as §1, §2

[5] = molecular target: T2, Biotinylated recombinant human IL-13Rα2 …; assay: SPR; ratio of the affinities for IL13Rα2 and IL13Rα1 (reference: IL13Rα1)
Description: as §2

[6] = molecular target: T1, Biotinylated recombinant human IL-13Rα1 …; assay: SPR (Biacore T100), biotinylated IL-13Rα1 captured on SA chip, IL-13 C4 flowed; Ka and Kd cells are empty
Description: as §2

[7] = molecular target: T1, Biotinylated recombinant human IL-13Rα1 …; assay: SPR, IL-13Rα1 immobilized on the chip, IL-13 C4 flowed; panel titled IL-13C4/IL-13Rα1; Kon and Koff cells empty
Description: as §1, §2

[8] = molecular target: T2, Biotinylated recombinant human IL-13Rα2 …; assay: SPR, IL-13Rα2 immobilized on the chip, IL-13 D7 flowed; panel titled IL-13D7/IL-13Rα2
Description: as §1, §2

[9] = molecular target: T1, Biotinylated recombinant human IL-13Rα1 …; assay: SPR (Biacore T100), biotinylated IL-13Rα1 captured on SA chip, IL-13 D7 flowed; Ka and Kd cells are empty
Description: as §2

[10] = molecular target: T1, Biotinylated recombinant human IL-13Rα1 …; assay: SPR, IL-13Rα1 immobilized on the chip, IL-13 D7 flowed; panel titled IL-13D7/IL-13Rα1; Kon and Koff cells empty
Description: as §1, §2

[11] = molecular target: T2, Biotinylated recombinant human IL-13Rα2 …; assay: SPR (Biacore T100), biotinylated IL-13Rα2 captured on SA chip, IL-13 D7 flowed, 1:1 Langmuir fit
Description: as §2

Row | KDwt/KD mut [1] | koff [2] | kon [2] | Kd [3] | koff [4] | kon [4] | fold stronger affinity for IL13Rα2 relative to IL13Rα1 [5] | Kd [6] | Kd [7] | koff [8] | kon [8] | Kd [9] | Kd [10] | koff [11] | kon [11] | Binder
1 | 8200 | 0.000764 s⁻¹ | 1.94e+06 M⁻¹ s⁻¹ | 393 pM | 0.000764 s⁻¹ | 1.94e+06 M⁻¹ s⁻¹ | 92000 fold | 36 µM | 36 µM |  |  |  |  |  |  | IL13 C4 variant, soluble recombinant protein with C-terminal hexahistidine tag (ligand, also called C4 mutein) GPVPPSTAVRELIEELVNITQNQKAPLCNGSMVWSINLTAGMYCAALESLINVSGCSAIEKTQRMLSGFCPHKVSAGQFSSLHVRDTRIEVAQFVKDLLNHLKELFTEGQFNHHHHHH
2 | 940 |  |  | 3 pM |  |  | 1.4e+06 fold |  |  | 5.37e-05 s⁻¹ | 1.77e+07 M⁻¹ s⁻¹ | 4.1 µM | 4.1 µM | 5.37e-05 s⁻¹ | 1.77e+07 M⁻¹ s⁻¹ | IL13 D7 variant, soluble recombinant protein with C-terminal hexahistidine tag (ligand, also called D7 mutein) GPVPPSTAARELIEELFNITQNQKAPLCNGSMVWSINLTAGMYCAALESLINVSGCSAIEKTKRMLSGFCPHKVSAGQFPSLHVKKTRIEVAQFVKDLLIHLRKLFKEGQFNHHHHHH
